Data on one molecule can be found in paper PMC9225179, “RNA Polymerase II Transcription in Pneumocystis: TFIIB from Pneumocystis carinii Can Replace the Transcriptional Functions of Fission Yeast Schizosaccharomyces pombe TFIIB In Vivo and In Vitro” (International Journal of Molecular Sciences, 2022).

The target in this assay is T1, Schizosaccharomyces pombe TFIIB (S. pombe, UniProt O13749 1-340).
T1 construct: General transcription factor TFIIB of S. pombe (sua7), 340 aa as printed; also called SpIIB; fission yeast TFIIB
T1 sequence (looked up): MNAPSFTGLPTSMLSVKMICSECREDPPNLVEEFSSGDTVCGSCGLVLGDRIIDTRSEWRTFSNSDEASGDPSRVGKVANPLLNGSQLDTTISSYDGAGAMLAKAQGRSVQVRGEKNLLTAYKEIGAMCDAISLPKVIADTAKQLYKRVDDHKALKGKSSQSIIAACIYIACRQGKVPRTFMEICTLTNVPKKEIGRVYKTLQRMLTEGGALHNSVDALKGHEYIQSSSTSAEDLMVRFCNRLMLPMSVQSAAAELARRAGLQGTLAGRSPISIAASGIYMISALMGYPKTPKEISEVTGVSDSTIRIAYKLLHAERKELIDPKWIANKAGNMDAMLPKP
The assay can be described thus: native gel or EMSA; TBP and TFIIB (20 ng each) on 32P-labelled Ad-MLP TATA box probe; 20 mM HEPES pH 7.9, 50 mM KCl, 5 mM MgCl2, 5% glycerol; 15 min at 30 °C; 5% polyacrylamide gel at 4 °C. To be noted: both partners purified.

B1: Schizosaccharomyces pombe TATA-binding protein (natural protein, S. pombe, UniProt P17871 1-231, looked up)
chain: MDFALPTTASQASAFMNNSSLTFPVLPNANNEATNETADSGDAEVSKNEGVSGIVPTLQNIVATVNLDCRLDLKTIALHARNAEYNPKRFAAVIMRIREPKSTALIFASGKMVVLGGKSEDDSKLASRKYARIIQKLGFNAKFTDFKIQNIVGSCDVKFPIRLEGLAYSHGTFSSYEPELFPGLIYRMVKPKVVLLIFVSGKIVLTGAKVREEIYQAFEAIYPVLSEFRKH
notes: also called TBP; fission yeast TBP
Take B1: the binding result is on record as “binds”.
